Measurements: patent US8138323 (YEDA RESEARCH AND DEVELOPMENT, dated 2012)

Biological target: TNF (UniProt P01375 77-233)
Assay: cell-based or functional assay

Sequence of TNF (P01375 77-233 limits assumed): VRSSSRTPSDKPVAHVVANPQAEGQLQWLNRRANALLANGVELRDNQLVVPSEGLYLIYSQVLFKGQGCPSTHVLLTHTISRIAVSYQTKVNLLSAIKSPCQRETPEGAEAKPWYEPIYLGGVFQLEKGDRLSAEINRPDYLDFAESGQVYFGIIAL

B1: Tumor Necrosis Factor (TNF) Binding Protein II (receptor, human, UniProt P20333 25-213, looked up)
chain: AQVAFTPYAPEPGSTCRLREYYDQTAQMCCSKCSPGQHAKVFCTKTSDTVCDSCEDSTYTQLWNWVPECLSCGSRCSSDQVETQACTREQNRICTCRPGWYCALSKQEGCRLCAPLRKCRPGFGVARPGTETSDVVCKPCAPGTFSNTTSSTDICRPHQICNVVAIPGNASMDAVCTSTSPTRSMAPGA
  detectable cytotoxicity of rTNF in the presence of TBP-II against rTNF alone, days 2 to 9: 10 fold
